Patent publication US20210388110A1 (published 2021)

Target: T1, soluble human CD3ε chain (human, UniProt P07766 23-126, limits assumed)
T1 construct: the text says soluble human CD3ε chain; also called human CD3 epsilon chain
Test: SPR (Biacore)

T1 sequence (P07766 23-126 limits assumed): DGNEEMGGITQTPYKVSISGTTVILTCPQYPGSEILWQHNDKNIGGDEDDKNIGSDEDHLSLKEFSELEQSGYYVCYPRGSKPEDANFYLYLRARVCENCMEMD

Kd [nM]	Binder
25.3	TR01H040-E22Hh/none-Hi-Kn010G3/L0216-k0 (antibody, human IgG1, kappa, L234A L235A, N297A, single-arm) heavy: QVQLVESGGGLVQPGRSLRLSCAASGFTFSNAWMHWVRQAPGKGLEWVAQIKDKSQNYATYYAESVKGRFTISRADSKNSIYLQMNSLKTEDTAVYYCRYVHYSASYGVDAWGQGTTVTVSSASTKGPSVFPLAPSSKSTSGGTAALGCLVKDYFPEPVTVSWNSGALTSGVHTFPAVLQSSGLYSLSSVVTVPSSSLGTQTYICNVNHKPSNTKVDKKVEPKSCDKTHTCPPCPAPEAAGGPSVFLFPPKPKDTLMISRTPEVTCVVVDVSHEDPEVKFNWYVDGVEVHNAKTKPREEQYASTYRVVSVLTVLHQDWLNGKEYKCKVSNKALPAPIEKTISKAKGQPREPQVYTLPPSRCELTKNQVSLSCAVKGFYPSDIAVEWESNGQPENNYKTTPPVLDSDGSFFLVSKLTVDKSRWQQGNVFSCSVMHEALHNHYTQKSLSLSPDYKDDDDK EPKSSDKTHTCPPCPAPELLGGPSVFLFPPKPKDTLMISRTPEVTCVVVDVSHEDPEVKFNWYVDGVEVHNAKTKPREEQYNSTYRVVSVLTVLHQDWLNGKEYKCKVSNKALPAPIEKTISKAKGQPREPQVCTLPPSRDELTKNQVSLWCLVKGFYPSDIAVEWESNGQPENNYKTTPPVLDSDGSFFLYSKLTVDKSRWQQGNVFSCSVMHEALHNRYTQKSLSLSP light: DIVMTQSPLSLPVTPGEPASISCRSSQPLVHSNRNTYLHWYQQKPGQAPRLLIYKVSNRFRGVPDRFSGSGSGTDFTLKISRVEAEDVGVYYCGQGTQVPYTFGQGTKLEIKRTVAAPSVFIFPPSDEQLKSGTASVVCLLNNFYPREAKVQWKVDNALQSGNSQESVTEQDSKDSTYSLSSTLTLSKADYEKHKVYACEVTHQGLSSPVTKSFNRGEC
20.7	TR01H040-E22Hh/none-Hi-Kn010G3/L0217-k0 (antibody, human IgG1, kappa, L234A L235A, N297A, single-arm) heavy: QVQLVESGGGLVQPGRSLRLSCAASGFTFSNAWMHWVRQAPGKGLEWVAQIKDKSQNYATYYAESVKGRFTISRADSKNSIYLQMNSLKTEDTAVYYCRYVHYSASYGVDAWGQGTTVTVSSASTKGPSVFPLAPSSKSTSGGTAALGCLVKDYFPEPVTVSWNSGALTSGVHTFPAVLQSSGLYSLSSVVTVPSSSLGTQTYICNVNHKPSNTKVDKKVEPKSCDKTHTCPPCPAPEAAGGPSVFLFPPKPKDTLMISRTPEVTCVVVDVSHEDPEVKFNWYVDGVEVHNAKTKPREEQYASTYRVVSVLTVLHQDWLNGKEYKCKVSNKALPAPIEKTISKAKGQPREPQVYTLPPSRCELTKNQVSLSCAVKGFYPSDIAVEWESNGQPENNYKTTPPVLDSDGSFFLVSKLTVDKSRWQQGNVFSCSVMHEALHNHYTQKSLSLSPDYKDDDDK EPKSSDKTHTCPPCPAPELLGGPSVFLFPPKPKDTLMISRTPEVTCVVVDVSHEDPEVKFNWYVDGVEVHNAKTKPREEQYNSTYRVVSVLTVLHQDWLNGKEYKCKVSNKALPAPIEKTISKAKGQPREPQVCTLPPSRDELTKNQVSLWCLVKGFYPSDIAVEWESNGQPENNYKTTPPVLDSDGSFFLYSKLTVDKSRWQQGNVFSCSVMHEALHNRYTQKSLSLSP light: DIVMTQSPLSLPVTPGEPASISCRPSQSLVHSNRNTYLHWYQQKPGQAPRLLIYKVSNRFRGVPDRFSGSGSGTDFTLKISRVEAEDVGVYYCGQGTQVPYTFGQGTKLEIKRTVAAPSVFIFPPSDEQLKSGTASVVCLLNNFYPREAKVQWKVDNALQSGNSQESVTEQDSKDSTYSLSSTLTLSKADYEKHKVYACEVTHQGLSSPVTKSFNRGEC
8.2	TR01H040-E22Hh/none-Hi-Kn010G3/L0218-k0 (antibody, human IgG1, kappa, L234A L235A, N297A, single-arm) heavy: QVQLVESGGGLVQPGRSLRLSCAASGFTFSNAWMHWVRQAPGKGLEWVAQIKDKSQNYATYYAESVKGRFTISRADSKNSIYLQMNSLKTEDTAVYYCRYVHYSASYGVDAWGQGTTVTVSSASTKGPSVFPLAPSSKSTSGGTAALGCLVKDYFPEPVTVSWNSGALTSGVHTFPAVLQSSGLYSLSSVVTVPSSSLGTQTYICNVNHKPSNTKVDKKVEPKSCDKTHTCPPCPAPEAAGGPSVFLFPPKPKDTLMISRTPEVTCVVVDVSHEDPEVKFNWYVDGVEVHNAKTKPREEQYASTYRVVSVLTVLHQDWLNGKEYKCKVSNKALPAPIEKTISKAKGQPREPQVYTLPPSRCELTKNQVSLSCAVKGFYPSDIAVEWESNGQPENNYKTTPPVLDSDGSFFLVSKLTVDKSRWQQGNVFSCSVMHEALHNHYTQKSLSLSPDYKDDDDK EPKSSDKTHTCPPCPAPELLGGPSVFLFPPKPKDTLMISRTPEVTCVVVDVSHEDPEVKFNWYVDGVEVHNAKTKPREEQYNSTYRVVSVLTVLHQDWLNGKEYKCKVSNKALPAPIEKTISKAKGQPREPQVCTLPPSRDELTKNQVSLWCLVKGFYPSDIAVEWESNGQPENNYKTTPPVLDSDGSFFLYSKLTVDKSRWQQGNVFSCSVMHEALHNRYTQKSLSLSP light: DIVMTQSPLSLPVTPGEPASISCRSSQSLVHSNRNTYLHWYQQKPGQAPRLLIYKVSNRFRGVPDRFSGSGSGTDFTLKISRVEAEDVGVYYCYQGTQVPYTFGQGTKLEIKRTVAAPSVFIFPPSDEQLKSGTASVVCLLNNFYPREAKVQWKVDNALQSGNSQESVTEQDSKDSTYSLSSTLTLSKADYEKHKVYACEVTHQGLSSPVTKSFNRGEC
9.15	TR01H040-E22Hh/none-Hi-Kn010G3/L0220-k0 (antibody, human IgG1, kappa, L234A L235A, N297A, single-arm) heavy: QVQLVESGGGLVQPGRSLRLSCAASGFTFSNAWMHWVRQAPGKGLEWVAQIKDKSQNYATYYAESVKGRFTISRADSKNSIYLQMNSLKTEDTAVYYCRYVHYSASYGVDAWGQGTTVTVSSASTKGPSVFPLAPSSKSTSGGTAALGCLVKDYFPEPVTVSWNSGALTSGVHTFPAVLQSSGLYSLSSVVTVPSSSLGTQTYICNVNHKPSNTKVDKKVEPKSCDKTHTCPPCPAPEAAGGPSVFLFPPKPKDTLMISRTPEVTCVVVDVSHEDPEVKFNWYVDGVEVHNAKTKPREEQYASTYRVVSVLTVLHQDWLNGKEYKCKVSNKALPAPIEKTISKAKGQPREPQVYTLPPSRCELTKNQVSLSCAVKGFYPSDIAVEWESNGQPENNYKTTPPVLDSDGSFFLVSKLTVDKSRWQQGNVFSCSVMHEALHNHYTQKSLSLSPDYKDDDDK EPKSSDKTHTCPPCPAPELLGGPSVFLFPPKPKDTLMISRTPEVTCVVVDVSHEDPEVKFNWYVDGVEVHNAKTKPREEQYNSTYRVVSVLTVLHQDWLNGKEYKCKVSNKALPAPIEKTISKAKGQPREPQVCTLPPSRDELTKNQVSLWCLVKGFYPSDIAVEWESNGQPENNYKTTPPVLDSDGSFFLYSKLTVDKSRWQQGNVFSCSVMHEALHNRYTQKSLSLSP light: DIVMTQSPLSLPVTPGEPASISCRSSQPLVHSNRNTYLHWYQQKPGQAPRLLIYKVSNRFRGVPDRFSGSGSGTDFTLKISRVEAEDVGVYYCYQGTQVPYTFGQGTKLEIKRTVAAPSVFIFPPSDEQLKSGTASVVCLLNNFYPREAKVQWKVDNALQSGNSQESVTEQDSKDSTYSLSSTLTLSKADYEKHKVYACEVTHQGLSSPVTKSFNRGEC
46.5	TR01H040-E22Hh/none-Hi-Kn010G3/L0222-k0 (antibody, human IgG1, kappa, L234A L235A, N297A, single-arm) heavy: QVQLVESGGGLVQPGRSLRLSCAASGFTFSNAWMHWVRQAPGKGLEWVAQIKDKSQNYATYYAESVKGRFTISRADSKNSIYLQMNSLKTEDTAVYYCRYVHYSASYGVDAWGQGTTVTVSSASTKGPSVFPLAPSSKSTSGGTAALGCLVKDYFPEPVTVSWNSGALTSGVHTFPAVLQSSGLYSLSSVVTVPSSSLGTQTYICNVNHKPSNTKVDKKVEPKSCDKTHTCPPCPAPEAAGGPSVFLFPPKPKDTLMISRTPEVTCVVVDVSHEDPEVKFNWYVDGVEVHNAKTKPREEQYASTYRVVSVLTVLHQDWLNGKEYKCKVSNKALPAPIEKTISKAKGQPREPQVYTLPPSRCELTKNQVSLSCAVKGFYPSDIAVEWESNGQPENNYKTTPPVLDSDGSFFLVSKLTVDKSRWQQGNVFSCSVMHEALHNHYTQKSLSLSPDYKDDDDK EPKSSDKTHTCPPCPAPELLGGPSVFLFPPKPKDTLMISRTPEVTCVVVDVSHEDPEVKFNWYVDGVEVHNAKTKPREEQYNSTYRVVSVLTVLHQDWLNGKEYKCKVSNKALPAPIEKTISKAKGQPREPQVCTLPPSRDELTKNQVSLWCLVKGFYPSDIAVEWESNGQPENNYKTTPPVLDSDGSFFLYSKLTVDKSRWQQGNVFSCSVMHEALHNRYTQKSLSLSP light: DIVMTQSPLSLPVTPGEPASISCRSSQSPVHSNRNTYIQWYQQKPGQAPRLLIYKVSNRFSGVPDRFSGSGSGTDFTLKISRVEAEDVGVYYCYQGTQVPYTFGQGTKLEIKRTVAAPSVFIFPPSDEQLKSGTASVVCLLNNFYPREAKVQWKVDNALQSGNSQESVTEQDSKDSTYSLSSTLTLSKADYEKHKVYACEVTHQGLSSPVTKSFNRGEC
39.4	TR01H040-E22Hh/none-Hi-Kn010G3/L0219-k0 (antibody, human IgG1, kappa, L234A L235A, N297A, single-arm) heavy: QVQLVESGGGLVQPGRSLRLSCAASGFTFSNAWMHWVRQAPGKGLEWVAQIKDKSQNYATYYAESVKGRFTISRADSKNSIYLQMNSLKTEDTAVYYCRYVHYSASYGVDAWGQGTTVTVSSASTKGPSVFPLAPSSKSTSGGTAALGCLVKDYFPEPVTVSWNSGALTSGVHTFPAVLQSSGLYSLSSVVTVPSSSLGTQTYICNVNHKPSNTKVDKKVEPKSCDKTHTCPPCPAPEAAGGPSVFLFPPKPKDTLMISRTPEVTCVVVDVSHEDPEVKFNWYVDGVEVHNAKTKPREEQYASTYRVVSVLTVLHQDWLNGKEYKCKVSNKALPAPIEKTISKAKGQPREPQVYTLPPSRCELTKNQVSLSCAVKGFYPSDIAVEWESNGQPENNYKTTPPVLDSDGSFFLVSKLTVDKSRWQQGNVFSCSVMHEALHNHYTQKSLSLSPDYKDDDDK EPKSSDKTHTCPPCPAPELLGGPSVFLFPPKPKDTLMISRTPEVTCVVVDVSHEDPEVKFNWYVDGVEVHNAKTKPREEQYNSTYRVVSVLTVLHQDWLNGKEYKCKVSNKALPAPIEKTISKAKGQPREPQVCTLPPSRDELTKNQVSLWCLVKGFYPSDIAVEWESNGQPENNYKTTPPVLDSDGSFFLYSKLTVDKSRWQQGNVFSCSVMHEALHNRYTQKSLSLSP light: DIVMTQSPLSLPVTPGEPASISCRSSQSLVHSNRNTYIHWYQQKPGQAPRLLIYKVSNRFRGVPDRFSGSGSGTDFTLKISRVEAEDVGVYYCGQGTQVPYTFGQGTKLEIKRTVAAPSVFIFPPSDEQLKSGTASVVCLLNNFYPREAKVQWKVDNALQSGNSQESVTEQDSKDSTYSLSSTLTLSKADYEKHKVYACEVTHQGLSSPVTKSFNRGEC
